Measurements: the supplement of paper PMC12042874
± gives the uncertainty stated by the source.

Assay: amyloid nucleation score (Sup35N fusion, yeast selection) (log enrichment); library NNK3; higher = more nucleation; inactive = no reads after selection
In short: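 Peptides of 20 random codons fused to Sup35N were expressed in psi-negative yeast, induced 24 hours with 100 μM copper sulfate, then grown 7 days at 30°C on medium lacking adenine and uracil. Input and output plasmid inserts were Illumina-sequenced. Nucleation score is the DiMSum log enrichment of output over input reads, centred on the mode score of non-aggregating sequences, excluding sequences with under 100 input reads. Random libraries had three technical output replicates.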

Substance: ARWGDSLSRDLTSGYLFGVG
- amyloid nucleation score: inactive

Substance: RNSRSLSLPCC
- amyloid nucleation score: inactive

Substance: MWYLTDWIDCFCLSNMNICT
- amyloid nucleation score: 1.81 ± 0.063

Substance: ISHFLE
- amyloid nucleation score: inactive

Substance: TDVDNGLYRIDNLMARAKVY
- amyloid nucleation score: inactive

Substance: IQHSFCGRNSDLPLNVWLMW
- amyloid nucleation score: inactive

Substance: LNCMQVYFICVTWFAC
- amyloid nucleation score: inactive

Substance: VWLWPI
- amyloid nucleation score: inactive

Substance: TIRFGSSLPCNPDSSYLLRI
- amyloid nucleation score: inactive

Substance: GKYVVIDIGRSYFSKISGFR
- amyloid nucleation score: inactive

Substance: FMVGR
- amyloid nucleation score: inactive

Substance: SLRHLDFFRLTGFWHFYALD
- amyloid nucleation score: inactive

Substance: FFSSDDMWRYWMFSYSDNSI
- amyloid nucleation score: inactive

Substance: FMSSSPDSYCEKGKRQ
- amyloid nucleation score: inactive

Substance: HCLLCNYRLWSACKCPGYVS
- amyloid nucleation score: inactive

Substance: LHRSCAIAA
- amyloid nucleation score: inactive

Substance: YCVSGMVMCCH
- amyloid nucleation score: inactive

Substance: IKNYCIIYSETPGRNKCGLR
- amyloid nucleation score: 1.01 ± 0.22

Substance: SLEVINVVRININNQEYIYL
- amyloid nucleation score: 0.276 ± 0.23

Substance: QYFHMTWSVIVYEIGVRPYI
- amyloid nucleation score: -0.449 ± 0.8

Substance: FSVYVAG
- amyloid nucleation score: inactive

Substance: DSGCLAMF
- amyloid nucleation score: inactive

Substance: GCASRLFVGWRGSCRMCGTY
- amyloid nucleation score: inactive

Substance: LLLSLGVLCYP
- amyloid nucleation score: inactive

Substance: GTYLGELVTGLTPGRCPGHF
- amyloid nucleation score: inactive

Substance: HPSVVLHGEATCTASRVLQV
- amyloid nucleation score: inactive

Substance: PVFVCCRWHVVFGKNNGSAT
- amyloid nucleation score: 1.47 ± 0.13

Substance: MTRVNFYFLFFELLLMAFGV
- amyloid nucleation score: inactive

Substance: RAYGPGRSASEALGRLCVGL
- amyloid nucleation score: inactive

Substance: ELDMLRYEVMVCNHDDGLCE
- amyloid nucleation score: inactive

Substance: AMNFYI
- amyloid nucleation score: inactive

Substance: RVEMICFQDYLEYKRE
- amyloid nucleation score: inactive

Substance: AIRGVARLRVMDRVSALPLR
- amyloid nucleation score: inactive

Substance: TSGHVVTMEHRLLYVPTIGF
- amyloid nucleation score: inactive

Substance: FLVNPVCSMVSSYCSFPSPK
- amyloid nucleation score: 2.52 ± 0.062

Substance: YCVMNSAINSLRSMAIWSFA
- amyloid nucleation score: inactive

Substance: RIEYVVPITPM
- amyloid nucleation score: inactive

Substance: AVRCPLNMHLRGRAVVQYKG
- amyloid nucleation score: inactive

Substance: LCFWNGLTTIDYYSFMGLLS
- amyloid nucleation score: 0.409 ± 0.15

Substance: ACFEAICGYSTLSQ
- amyloid nucleation score: inactive

Substance: FAHVI
- amyloid nucleation score: inactive

Substance: STIKFTGFVYFSN
- amyloid nucleation score: inactive

Substance: YYSLWRSIIVEACRFC
- amyloid nucleation score: inactive

Substance: SWYESKFVAVRWWIGDPLRG
- amyloid nucleation score: 0.703 ± 0.26

Substance: LLDLDCYASLVSTTLEHMSG
- amyloid nucleation score: inactive

Substance: LYLIFFCLWSSQLDAQLFVL
- amyloid nucleation score: -0.217 ± 0.93

Substance: YYQLKSHVVRDGHVWTICGS
- amyloid nucleation score: inactive

Substance: LASRRQMMWVVHRFLNGAVH
- amyloid nucleation score: inactive

Substance: RCTVDVFMHCSKLSNAELSL
- amyloid nucleation score: 0.833 ± 0.12

Substance: TSLWRLL
- amyloid nucleation score: inactive

Substance: IKFSEWMNVGIVWWHYLISG
- amyloid nucleation score: inactive

Substance: PVHGVGLAIRGSYGSYTGLL
- amyloid nucleation score: inactive

Substance: CRHINFMSIIFSFGDSSYRF
- amyloid nucleation score: 2.2 ± 0.08

Substance: TVIKPWLLICCDLFREVGFA
- amyloid nucleation score: 1.12 ± 0.14

Substance: WPGNWSQFNQCWCRETTCYV
- amyloid nucleation score: inactive

Substance: SLCSVLIMHPSNSDRF
- amyloid nucleation score: 0.101 ± 0.75

Substance: LQRPASEFSERGA
- amyloid nucleation score: inactive

Substance: RDVCVHPNHFKCGAAMFPED
- amyloid nucleation score: inactive

Substance: VTGNDQ
- amyloid nucleation score: inactive

Substance: SNCSSWSSPV
- amyloid nucleation score: inactive

Substance: IRKSFVEKMLPLPFSLAAIG
- amyloid nucleation score: 0.234 ± 0.44

Substance: YGSDGHHLA
- amyloid nucleation score: inactive

Substance: CPNVYIAIPIFS
- amyloid nucleation score: -0.423 ± 0.63

Substance: FYLGLAYVLSWVGFCVIGVS
- amyloid nucleation score: inactive

Substance: NKAYCWTLYLGMINDCIRFY
- amyloid nucleation score: inactive

Substance: IVRMNQCSMGCLRVAMSSS
- amyloid nucleation score: inactive

Substance: TYVGV
- amyloid nucleation score: inactive

Substance: SLYLGWVPAIELLG
- amyloid nucleation score: inactive

Substance: ITLLCTLYYGQPTLGVDLVL
- amyloid nucleation score: inactive

Substance: WAYRCTR
- amyloid nucleation score: inactive

Substance: FSRGLNHYNLYNFGGLCICT
- amyloid nucleation score: 2.91 ± 0.07

Substance: FLNSCQNMQVPSGKFNSSKV
- amyloid nucleation score: -0.122 ± 0.82

Substance: PYRYLGARIRCMAKDSVSHI
- amyloid nucleation score: inactive

Substance: RLFDLVYSGLVFRKHSHTAM
- amyloid nucleation score: inactive

Substance: SCVDPVRWLRGASF
- amyloid nucleation score: inactive

Substance: RPPHYQCMCSLVLSSRRNIQ
- amyloid nucleation score: inactive

Substance: WFFLGFVLIIKWLGLHQYSF
- amyloid nucleation score: inactive

Substance: NRRIMVSSFRKVFLSGYGWF
- amyloid nucleation score: inactive

Substance: FCIECYL
- amyloid nucleation score: inactive

Substance: MFLSWCKKVNLRMIILSSDT
- amyloid nucleation score: inactive

Substance: RLAKSMH
- amyloid nucleation score: inactive

Substance: FSVIMFMNLRAQFASMDRGG
- amyloid nucleation score: 1.59 ± 0.12

Substance: FSFWTTSN
- amyloid nucleation score: inactive

Substance: FYEVRVRRVRVHVKEQPLLH
- amyloid nucleation score: -0.406 ± 1.3

Substance: AAISVFCEVFK
- amyloid nucleation score: inactive

Substance: TCLLFVTHFNWYNTLVEGTI
- amyloid nucleation score: 0.989 ± 0.15

Substance: SDCGDFRLMVFQKSRRDSWN
- amyloid nucleation score: inactive

Substance: WIGRTLLDSYDGRFSIAIRD
- amyloid nucleation score: inactive

Substance: FSSCDHRFWTFLIKFMLLAL
- amyloid nucleation score: inactive

Substance: VYHWFWMQRLNGWFENQQRK
- amyloid nucleation score: inactive

Substance: LYWEPKLTSDFKRLDLRLVP
- amyloid nucleation score: inactive

Substance: DDICIEKARDVVSMSPRSFR
- amyloid nucleation score: inactive

Substance: VVDLIRNCKDRTVDLLDGIA
- amyloid nucleation score: inactive

Substance: LQRGTQVYRCSLSFVRNVRF
- amyloid nucleation score: inactive

Substance: DIVVGAQRNELFS
- amyloid nucleation score: inactive

Substance: NLFMMHV
- amyloid nucleation score: inactive

Substance: CPTASHNIALLTYDQTRTQY
- amyloid nucleation score: inactive

Substance: LNAEIL
- amyloid nucleation score: inactive

Substance: LNPNYRNAYLNYRVLFY
- amyloid nucleation score: inactive

Substance: TRNPDKLCANVLDNRH
- amyloid nucleation score: inactive

Substance: LCTSLLKF
- amyloid nucleation score: -0.5 ± 0.9

Substance: SFAGVCAMCKTCKRAKGVPA
- amyloid nucleation score: -0.39 ± 1.9

Substance: VTVMT
- amyloid nucleation score: inactive

Substance: DWIKFHVTDW
- amyloid nucleation score: inactive

Substance: NYNCVVDNLSGKCMNEILGY
- amyloid nucleation score: 1.09 ± 0.097

Substance: ITARLVTS
- amyloid nucleation score: inactive

Substance: SVKLLSVTSCDGGRAWWQGG
- amyloid nucleation score: inactive

Substance: LHRLMLTRCVPGFV
- amyloid nucleation score: -0.443 ± 0.98

Substance: LIIGCGIFSLNS
- amyloid nucleation score: 1.94 ± 0.068

Substance: IPSWELISGHWS
- amyloid nucleation score: inactive

Substance: SSIGCPYLSYDYCFPTMWIW
- amyloid nucleation score: inactive

Substance: LRIMSIYIEEALSIGHDNWF
- amyloid nucleation score: 0.205 ± 0.46

Substance: KYEVCSYFNLCGEGKYRTVV
- amyloid nucleation score: inactive

Substance: DNMSKTSFKLTNCRQCIM
- amyloid nucleation score: inactive

Substance: THEVISSFGMVFRNSNFCNS
- amyloid nucleation score: inactive

Substance: VCLLNWFWIYDQYVRQLTVV
- amyloid nucleation score: inactive

Substance: VMKPSNVVQGSMNPESSLGM
- amyloid nucleation score: inactive

Substance: SVILNLMRRWPRKHEVKDAC
- amyloid nucleation score: inactive

Substance: VDRVT
- amyloid nucleation score: inactive

Substance: YFQTIVFRGTSGYCIVNQQV
- amyloid nucleation score: 1.97 ± 0.1

Substance: SECWKAFDLGYDNKLSIPRI
- amyloid nucleation score: inactive

Substance: LGHVCILVQGGSKVRPTYGS
- amyloid nucleation score: inactive

Substance: WILLGRSSQWSWASGGNSGQ
- amyloid nucleation score: 1.5 ± 0.092

Substance: SSWADYSKPYSGFCQGYRVY
- amyloid nucleation score: inactive

Substance: HKRIFGCVISVPFTSCFT
- amyloid nucleation score: inactive

Substance: VFLSCSCRWMVYGYNLTADC
- amyloid nucleation score: inactive

Substance: AFSISVLM
- amyloid nucleation score: inactive

Substance: NMRKLVCDMEIWMIFCAKSN
- amyloid nucleation score: 0.505 ± 0.28

Substance: TINRHYVTASRYWLPCRRVR
- amyloid nucleation score: inactive

Substance: FTCQSHAILGVDDDTWGRTN
- amyloid nucleation score: inactive

Substance: KGEFIRPTSMVKYTDGLESG
- amyloid nucleation score: inactive

Substance: CSAWGLRKF
- amyloid nucleation score: 0.673 ± 0.2

Substance: MIRSVLLIQFNALEHSVRCR
- amyloid nucleation score: inactive

Substance: RVDWRNGRVRRHLRHVLRIN
- amyloid nucleation score: inactive

Substance: ISQLIEHRRAESCLRPKGRQ
- amyloid nucleation score: inactive

Substance: YIFRIHGPLPILHTRYPIRR
- amyloid nucleation score: inactive

Substance: NMHRNSSIRDRSVIRTWGMV
- amyloid nucleation score: inactive

Substance: RVRVNPSVHRRPRYGND
- amyloid nucleation score: inactive

Substance: FWFWMIVDNRWYSLAVEARW
- amyloid nucleation score: -0.304 ± 0.8

Substance: VNNKSFCRWAGANNLLQVMH
- amyloid nucleation score: inactive

Substance: AVYLGGGHKSCRRSRRWLVS
- amyloid nucleation score: inactive

Substance: NADCAYCLLFNLRWSVCVRT
- amyloid nucleation score: -0.067 ± 0.36

Substance: LFRIRQCFFYFSIFLVFSIK
- amyloid nucleation score: inactive

Substance: RFNGVVQEIVFCWRYRFVGN
- amyloid nucleation score: -0.631 ± 0.96

Substance: SKWYLFITGFRYMWFVRFNV
- amyloid nucleation score: inactive

Substance: SKESTNSVRCVFITVSPTRR
- amyloid nucleation score: 0.976 ± 0.21

Substance: KRNFGWSAIRVQFIDFCLKG
- amyloid nucleation score: inactive

Substance: LRCYDILLDA
- amyloid nucleation score: inactive

Substance: YRMICPAIV
- amyloid nucleation score: inactive

Substance: NLFYNEEDVLIQFVYQRTIW
- amyloid nucleation score: inactive

Substance: GDCVLDPDLRSWDEW
- amyloid nucleation score: inactive

Substance: IMPPEFVFIFHRMNGHYLGF
- amyloid nucleation score: inactive

Substance: ASGSHSVT
- amyloid nucleation score: inactive

Substance: WLVKGPVCKGSAS
- amyloid nucleation score: -0.116 ± 1.1

Substance: NLPHIYRDHRRFWVGFSIMT
- amyloid nucleation score: 1.12 ± 0.17

Substance: IRLCLLSIMWLNGWLSAIHA
- amyloid nucleation score: inactive

Substance: ADCPPRYRLPWGELGLRGEI
- amyloid nucleation score: inactive

Substance: SMEIGLGVEIYDVMRFGERM
- amyloid nucleation score: inactive

Substance: FPQFLSIAGPKPHCKN
- amyloid nucleation score: inactive
